Numbered stars: 1 amine (or outer) side, 2 acyl side, 3 side chain; on linkers, the order of the positions; unused ones are H or OH. Square brackets hold non-standard residues; d marks the D form. Side chains are listed from the residue outwards. Ends that are not written are not given here. * marks the point of attachment. C20 diacid = O=C(O)CCCCCCCCCCCCCCCCCCC(=O)*; C18 diacid = O=C(O)CCCCCCCCCCCCCCCCC(=O)*; γGlu = O=C(O)[C@H](CCC(=O)[*:2])N[*:1]; AEEA = NCCOCCOCC(=O)O; Aib = CC(C)(N)C(=O)O
T1: human gastric inhibitory peptide receptor (GIPR) (human, UniProt P48546 22-466)
T1 sequence (looked up): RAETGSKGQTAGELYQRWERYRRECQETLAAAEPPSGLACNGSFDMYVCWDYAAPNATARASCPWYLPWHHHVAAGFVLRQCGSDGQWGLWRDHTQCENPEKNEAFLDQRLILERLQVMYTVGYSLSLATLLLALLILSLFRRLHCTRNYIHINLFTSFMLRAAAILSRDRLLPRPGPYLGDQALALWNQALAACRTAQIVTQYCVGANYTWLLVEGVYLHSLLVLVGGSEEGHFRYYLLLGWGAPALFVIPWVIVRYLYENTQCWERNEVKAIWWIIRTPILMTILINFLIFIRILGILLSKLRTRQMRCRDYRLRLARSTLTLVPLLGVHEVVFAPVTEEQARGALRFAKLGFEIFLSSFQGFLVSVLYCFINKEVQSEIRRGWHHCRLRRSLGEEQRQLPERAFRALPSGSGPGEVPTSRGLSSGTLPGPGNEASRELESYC

B1: Example 330 (peptide)
peptide: Y[Aib]EGTFTSDYSILLDEK([AEEA-AEEA-γGlu-C20 diacid])AQ[Aib]AFIEYLIAGGPSSGAPPPS-NH2
modifications: N-terminus assumed
SMILES: CC[C@H](C)[C@H](NC(=O)[C@H](CC(C)C)NC(=O)[C@H](Cc1ccc(O)cc1)NC(=O)[C@H](CCC(=O)O)NC(=O)[C@@H](NC(=O)[C@H](Cc1ccccc1)NC(=O)[C@H](C)NC(=O)C(C)(C)NC(=O)[C@H](CCC(N)=O)NC(=O)[C@H](C)NC(=O)[C@H](CCCCNC(=O)COCCOCCNC(=O)COCCOCCNC(=O)CC[C@H](NC(=O)CCCCCCCCCCCCCCCCCCC(=O)O)C(=O)O)NC(=O)[C@H](CCC(=O)O)NC(=O)[C@H](CC(=O)O)NC(=O)[C@H](CC(C)C)NC(=O)[C@H](CC(C)C)NC(=O)[C@@H](NC(=O)[C@H](CO)NC(=O)[C@H](Cc1ccc(O)cc1)NC(=O)[C@H](CC(=O)O)NC(=O)[C@H](CO)NC(=O)[C@@H](NC(=O)[C@H](Cc1ccccc1)NC(=O)[C@@H](NC(=O)CNC(=O)[C@H](CCC(=O)O)NC(=O)C(C)(C)NC(=O)[C@@H](N)Cc1ccc(O)cc1)[C@@H](C)O)[C@@H](C)O)[C@@H](C)CC)[C@@H](C)CC)C(=O)N[C@@H](C)C(=O)NCC(=O)NCC(=O)N1CCC[C@H]1C(=O)N[C@@H](CO)C(=O)N[C@@H](CO)C(=O)NCC(=O)N[C@@H](C)C(=O)N1CCC[C@H]1C(=O)N1CCC[C@H]1C(=O)N1CCC[C@H]1C(=O)N[C@@H](CO)C(N)=O
B2: Example 322 (peptide)
peptide: Y[Aib]EGTFTSDYSILLDKK([AEEA-AEEA-γGlu-C18 diacid])AQ[Aib]HFIEYLIEGGPSSG-NH2
modifications: N-terminus assumed
SMILES: CC[C@H](C)[C@H](NC(=O)[C@H](CC(C)C)NC(=O)[C@H](Cc1ccc(O)cc1)NC(=O)[C@H](CCC(=O)O)NC(=O)[C@@H](NC(=O)[C@H](Cc1ccccc1)NC(=O)[C@H](Cc1c[nH]cn1)NC(=O)C(C)(C)NC(=O)[C@H](CCC(N)=O)NC(=O)[C@H](C)NC(=O)[C@H](CCCCNC(=O)COCCOCCNC(=O)COCCOCCNC(=O)CC[C@H](NC(=O)CCCCCCCCCCCCCCCCC(=O)O)C(=O)O)NC(=O)[C@H](CCCCN)NC(=O)[C@H](CC(=O)O)NC(=O)[C@H](CC(C)C)NC(=O)[C@H](CC(C)C)NC(=O)[C@@H](NC(=O)[C@H](CO)NC(=O)[C@H](Cc1ccc(O)cc1)NC(=O)[C@H](CC(=O)O)NC(=O)[C@H](CO)NC(=O)[C@@H](NC(=O)[C@H](Cc1ccccc1)NC(=O)[C@@H](NC(=O)CNC(=O)[C@H](CCC(=O)O)NC(=O)C(C)(C)NC(=O)[C@@H](N)Cc1ccc(O)cc1)[C@@H](C)O)[C@@H](C)O)[C@@H](C)CC)[C@@H](C)CC)C(=O)N[C@@H](CCC(=O)O)C(=O)NCC(=O)NCC(=O)N1CCC[C@H]1C(=O)N[C@@H](CO)C(=O)N[C@@H](CO)C(=O)NCC(N)=O
B3: Example 323 (peptide)
peptide: YXEGTFTSDYSIXLDEKAQXAFIEYLIEGGPSSGAPPPS
modifications: Aib2, αMeL13, (2-[2-(2-Amino-ethoxy)-ethoxy]-acetyl)2-(γ-Glu)-CO-(CH2)16-CO2H on K17, Aib20, C-terminal NH2
B4: Example 325 (peptide)
peptide: YXEGTXTSDYSILLDKKAQXAFIEYLIEGGPSSGAPPPS
modifications: Aib2, αMeF(2F)6, (2-[2-(2-Amino-ethoxy)-ethoxy]-acetyl)2-(γ-Glu)-CO-(CH2)18-CO2H on K17, Aib20, C-terminal NH2
B5: Example 339 (peptide)
peptide: YXEGTFTSDYSIXLDKKAQXEFIEYLIAGGPSSGAPPPS
modifications: not fully specified; Aib2, αMeL13, (2-[2-(2-Amino-ethoxy)-ethoxy]-acetyl)-(γ-Glu)-CO-(CH2)18-CO2H on K17, Aib20, C-terminal NH2
B6: Example 337 (peptide)
peptide: FXEGTFTSDYSIXLDKKAQXAFIEYLIAGGPSSGAPPPS
modifications: not fully specified; Aib2, αMeL13, (2-[2-(2-Amino-ethoxy)-ethoxy]-acetyl)2-(γ-Glu)-CO-(CH2)18-CO2H on K17, Aib20, C-terminal NH2
B7: Example 328 (peptide)
peptide: FXEGTFTSDYSIXLDKKAQXAFIEYLIEAGPSSGAPPPS
modifications: Aib2, αMeL13, (2-[2-(2-Amino-ethoxy)-ethoxy]-acetyl)2-(γ-Glu)-CO-(CH2)16-CO2H on K17, Aib20, C-terminal NH2
B8: Example 338 (peptide)
peptide: FXEGTFTSDYSIXLDKKAQXEFIEYLIAGGPSSGAPPPS
modifications: not fully specified; Aib2, αMeL13, (2-[2-(2-Amino-ethoxy)-ethoxy]-acetyl)2-(γ-Glu)-CO-(CH2)18-CO2H on K17, Aib20, C-terminal NH2
B9: Example 342 (peptide)
peptide: XXEGTFTSDYSIXLDEKAQXEFIEYLIAGGPSSGAPPPS
modifications: not fully specified; D-Tyr1, Aib2, αMeL13, (2-[2-(2-Amino-ethoxy)-ethoxy]-acetyl)2-(γ-Glu)-CO-(CH2)18-CO2H on K17, Aib20, C-terminal NH2
B10: Example 343 (peptide)
peptide: YXEGTFTSDYSIXLDEKAQXAFIXYLIAGGPSSGAPPPS
modifications: not fully specified; Aib2, αMeL13, (2-[2-(2-Amino-ethoxy)-ethoxy]-acetyl)2-(γ-Glu)-CO-(CH2)18-CO2H on K17, Aib20, D-Glu24, C-terminal NH2
B11: Example 324 (peptide)
peptide: YXEGTFTSDYSIXLDKKAQXAFIEYLIAGGPSSGAPPPS
modifications: Aib2, αMeL13, (2-[2-(2-Amino-ethoxy)-ethoxy]-acetyl)2-(γ-Glu)-CO-(CH2)1s-CO2H (so in the source); probably (CH2)18) on K17, Aib20, C-terminal NH2
B12: Example 334 (peptide)
peptide: XXEGTFTSDYSIXLDKKAQXAFIEYLIEGGPSSGAPPPS
modifications: not fully specified; D-Tyr1, Aib2, αMeL13, (2-[2-(2-Amino-ethoxy)-ethoxy]-acetyl)2-(γ-Glu)-CO-(CH2)18-CO2H on K17, Aib20, C-terminal NH2
B13: Example 344 (peptide)
peptide: YXEGTFTSDYSIXLDEKAQXDFIEYLIAGGPSSGAPPPS
modifications: Aib2, αMeL13, (2-[2-(2-Amino-ethoxy)-ethoxy]-acetyl)2-(γ-Glu)-CO-(CH2)18-CO2H on K17, Aib20, C-terminal NH2
B14: Example 329 (peptide)
peptide: XXEGTXTSDYSILLDKKAQXAFIEYLIEGGPSSGAPPPS
modifications: D-Tyr1, Aib2, αMeF6, (2-[2-(2-Amino-ethoxy)-ethoxy]-acetyl)2-(γ-Glu)-CO-(CH2)18-CO2H on K17, Aib20, C-terminal NH2
B15: Example 340 (peptide)
peptide: XXEGTFTSDYSIXLDKKAQXAFIEYLIAGGPSSGAPPPS
modifications: not fully specified; D-Tyr1, Aib2, αMeL13, (2-[2-(2-Amino-ethoxy)-ethoxy]-acetyl)2-(γ-Glu)-CO-(CH2)18-CO2H on K17, Aib20, C-terminal NH2
B16: Example 327 (peptide)
peptide: FXEGTFTSDYSIXLDKKAQXAFIEYLIEGGPSSGAPPPS
modifications: Aib2, αMeL13, (2-[2-(2-Amino-ethoxy)-ethoxy]-acetyl)2-(γ-Glu)-CO-(CH2)18-CO2H on K17, Aib20, C-terminal NH2
B17: Example 341 (peptide)
peptide: XXEGTFTSDYSIXLDEKAQXAFIEYLIAGGPSSGAPPPS
modifications: not fully specified; D-Tyr1, Aib2, αMeL13, (2-[2-(2-Amino-ethoxy)-ethoxy]-acetyl)2-(γ-Glu)-CO-(CH2)18-CO2H on K17, Aib20, C-terminal NH2
B18: Example 333 (peptide)
peptide: YXEGTFTSDYSIXLDKKAQXEFIEYLIEGGPSSGAPPPS
modifications: not fully specified; Aib2, αMeL13, (2-[2-(2-Amino-ethoxy)-ethoxy]-acetyl)2-(γ-Glu)-CO-(CH2)18-CO2H on K17, Aib20, C-terminal NH2
B19: Example 346 (peptide)
peptide: XXEGTFTSDYSIXLDXKAQXAFIEYLIAGGPSSGAPPPS
modifications: D-Tyr1, Aib2, αMeL13, Orn16, (2-[2-(2-Amino-ethoxy)-ethoxy]-acetyl)2-(γ-Glu)-CO-(CH2)18-CO2H on K17, Aib20, C-terminal NH2
B20: Example 331 (peptide)
peptide: YXEGTFTSDYSIXLDEKAQXEFIEYLIAGGPSSGAPPPS
modifications: Aib2, αMeL13, (2-[2-(2-Amino-ethoxy)-ethoxy]-acetyl)2-(γ-Glu)-CO-(CH2)18-CO2H on K17, Aib20, C-terminal NH2
B21: Example 332 (peptide)
peptide: YXEGTFTSDYSIXLDEKAQXAFIEYLIAGGPSSGAPPPS
modifications: Aib2, αMeL13, (2-[2-(2-Amino-ethoxy)-ethoxy]-acetyl)2-(γ-Glu)-CO-(CH2)18-CO2H on K17, Aib20, C-terminal NH2

Experiments:
[1] = target: human GLP-1 receptor (GLP-1R) (human, UniProt P43220 24-463); assay: cell-based or functional assay
[2] = target: T1, human gastric inhibitory peptide …; assay: cell-based or functional assay

Row | Binder | hGLP1R cAMP EC50 ratio [1] | hGLP1R cAMP Rel EC50 [1] [pM] | hGIPR cAMP EC50 ratio [2] | hGIPR cAMP Rel EC50 [2] [pM]
1 | F[Aib]EGTFTSDYSILLDKK([AEEA-AEEA-γGlu-C20 diacid])AQ[Aib]AFIEYLIEGGPSSGAPPPS-NH2 [Example 326] | 1.4 | 36.9 | 1.5 | 75.4
2 | B1 | 0.255 | 199 | 0.562 | 91.9
3 | B2 | 0.125 | 711 | 0.266 | 146
4 | B3 | 1.32 | 59.7 | 3.24 | 25.1
5 | B4 | 1.16 | 58.6 | 2.65 | 30.1
6 | B5 | 0.574 | 98.6 | 3.18 | 21.9
7 | B6 | 0.265 | 173 | 1.18 | 51.5
8 | B7 | 0.575 | 117 | 0.94 | 96.5
9 | B8 | 0.262 | 174 | 1.29 | 47.2
10 | B9 | 0.198 | 127 | 0.32 | 159
11 | B10 | 0.662 | 124 | 1.84 | 42.2
12 | B11 | 0.798 | 92.6 | 2.13 | 37.4
13 | B12 | 0.151 | 303 | 0.844 | 71.8
14 | B13 | 1.86 | 44 | 1.79 | 43.3
15 | B14 | 0.535 | 125 | 0.687 | 132
16 | B15 | 0.183 | 252 | 0.852 | 82.3
17 | B16 | 0.191 | 270 | 1.47 | 54.8
18 | B17 | 0.0674 | 373 | 0.213 | 238
19 | B18 | 0.487 | 131 | 2.31 | 49.2
20 | B19 | 0.21 | 128 | 0.604 | 144
21 | B20 | 0.808 | 92.9 | 1.4 | 54.7
22 | B21 | 0.345 | 184 | 0.949 | 74.5
